{
  "source": "the nanobody polyreactivity screen of Harvey et al. (2022)",
  "data": [
    {"experiment": "yeast display, Sf9 membrane polyspecificity reagent, FACS + sequencing; frameworks hold sequencing errors", "how_it_was_run": "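Genes from sorted yeast were amplified by colony PCR, read by MiSeq 2 × 250 sequencing and filtered on CDR length. These cells carried a synthetic nanobody library in Saccharomyces cerevisiae BJ5465 and were sorted by FACS into low and high (top ~1%) gates on anti-HA and streptavidin fluorescence. Polyreactivity is labelled according to the gate of origin.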", "values": [
      {"sequence": "QVQLVESGGGLVQAGGSLRLSCAASGRTFRINAMGWYRQAPGKERELVAAITRGDTNYADSVKGRFTISRDNAKNTVYLQMNSLKPEDTAVYYCNADLSVRYPVFRELDYWGQGTQVTVSS", "polyreactivity (PSR sort gate)": "low polyreactivity"},
      {"sequence": "QVQLVESGGGLVQAGGSLRLSCAASGSIFNYNAMGWYRQEPGKERVLVATINKRAGRTYYADSVKGRFTISRDNAKNTFYLQMNSLNPEETAVYYCAAYGRNYSIYDYWGQGTQVTVSS", "polyreactivity (PSR sort gate)": "high polyreactivity"},
      {"sequence": "QVHLVESGGGLVQAGGSLRLSCAASGFTFRVYAMGWYRPAPGKERELVAAITKRGGSTYYADSVKGRFTISRDNAKNTVYLQMNSLKPEDTAGYYCATENTPHYASHGYWGQGTQVTVSS", "polyreactivity (PSR sort gate)": "high polyreactivity"},
      {"sequence": "QVQLVESGGGLVQAGGSLRLSCAASGSTFAWNAMGWDRQAPGKERELVAAISKSGGSTYYADSVKGRFTISRDNAKNTVYLQMNSLKPEDTAVYYCAASGTVYARVRYYYWGQGTQVTVSS", "polyreactivity (PSR sort gate)": "high polyreactivity"},
      {"sequence": "QVQLVESGGGLVQAGGSLRLSCAASGSIFNRNAMGWYRQAPGKERELVAAISNSGARTYYADSVKGRFTISRDNAKNTVYLQMNSLKPEDTAVYYCNDVRRRSKLYNYWGQGTQVTVSS", "polyreactivity (PSR sort gate)": "high polyreactivity"},
      {"sequence": "QVRLIESGGGLVQAGGSLRLSCAASGFTFFGNAMGWYRQAPGKERELVASISGSGTRTYYADSVKGRFTISRDNAKNTVYLQMNSLKPEDTAVYYCAARGSYSHGINYYWGQGTQVTVSS", "polyreactivity (PSR sort gate)": "high polyreactivity"},
      {"sequence": "QVQLVESGGGLVQAGGSLRLSCAASGRNFYYAMGWYRQEPGKERELVASITWSGGSTYYADSVKGRFTISRDNAKNTVYLQMNSLKPEDTAVYYCNADDLYTWYVEYNYWGQGTQVTVSS", "polyreactivity (PSR sort gate)": "low polyreactivity"},
      {"sequence": "QVQLVESGGGLVQAGASLRLSCAASGRTLGYYAMGWSRQEPGKERELVAAISRSGGSTYYADSVKGRFTISRDNAKNTVYLQINSLKPEDTAVYYCAATYGPSRYRYDYWGQGTQVTVSS", "polyreactivity (PSR sort gate)": "high polyreactivity"},
      {"sequence": "QVQLVESGGGLVQAGGSLRLSCAASGSTFGYNAMGWYRQAPGKERELVAAISSSGGSTYYADSVKGRFTISRDNAKNTVYLQMNSLKPEDTAVYYCATEFFQYYSTKGYDYWGQGTQVTVSS", "polyreactivity (PSR sort gate)": "low polyreactivity"},
      {"sequence": "QVQLVESGGGLVQAGGSLRLSCAASGSIFRKYALGWYRQAPGKERELVAAIRSSGGSTYYADSVKGRFTISRDNAKNTVYLQMNSLKPEDTAVYYCAARYYRPSRYDYWGQGTQVTVSS", "polyreactivity (PSR sort gate)": "high polyreactivity"},
      {"sequence": "QVQLVESGGGLVQAGGSLRLSCAASGFIFRGNAMGWYRQAPGKERELVAAISKSGGRTYYADSVKGRFTISRDNAKNTVYLQMNSLKPEDTAVYYCNVLRMGLGRESDSWGQGTQVTVSA", "polyreactivity (PSR sort gate)": "high polyreactivity"},
      {"sequence": "QVQLVESGGGLVQAGGSLRLSCAASGSIFYSYAMGWYRQAPGKERELVAAITTGGSTYYADSVKGRFTISRDNAKNTVYLQMNSLKPEDTAVYYCAADFKPTVTNEPKELDYWGQGTQVTVSS", "polyreactivity (PSR sort gate)": "low polyreactivity"},
      {"sequence": "QVQLVESGGGLVQAGGSLRLSCAASGSTFIRNTMGWYRQAPGKERELLAAISRSGVRTYYADSVKGRFTISRDNAKNTVYLQINSLKPEDTAVSYCAAVSSLSYSFPYDYWGQGTQVTVST", "polyreactivity (PSR sort gate)": "high polyreactivity"},
      {"sequence": "QVQLVESGGGLGQAGGSLRLSCAASGSIRDSNAMGWYRQAPGKERELVAAITSGGSTYYADSVKGRFTISRDNAKNTVYLQMNSLKPEDTAVYYCAAAYLGYGAVQPSYEGGYWGQGTQVTVSS", "polyreactivity (PSR sort gate)": "low polyreactivity"},
      {"sequence": "QVQLVESGVGLVQAGGSLRLSCAASGRIFAPYAMGWYRQAPGKERELVAAIRWRGGSTSYADSVKGRFTISRDNAKNTVYLQMNSLKPEDTAVYYCNADYGFSFYWYDYWGQGTQVTVSS", "polyreactivity (PSR sort gate)": "low polyreactivity"},
      {"sequence": "QVQLVESGAGLVQAGGSLRLSCAASGRIFDIYAMGWYRQAPGKERELVAAITRRGGTTYADSVKGRFTISRDNAKNTVYLQMNSLKPEDTAVYYCARYHWYYRVSKSDSWGQGTQVTVSS", "polyreactivity (PSR sort gate)": "high polyreactivity"},
      {"sequence": "QVQLVESGGGLVQAGGSLRLSCAASGFTFRRYDMGWYRQAPGKERELVATINRGGSTDYADSVKGRFTISRDNAKNTVYLQMNSLKPEDTAVYYCATRYYSSRTWSEYYYWGQGTQVTVSS", "polyreactivity (PSR sort gate)": "high polyreactivity"}
    ]}
  ]
}
